The text below walks through data of patent publication US20170355766A1 (Xencor, published 2017).

What all share (experiment): SPR (Biacore)
(In general: SPR reads the build-up and loss of mass on a sensor chip optically.)

The target in assay [1] is T1, human FcγRIIb receptor protein (R&D Systems) (human, UniProt P31994 46-217).
T1 construct: Analyte injected over antibodies captured on a protein A/G chip (Biacore); also called CD32b
T1 sequence (looked up): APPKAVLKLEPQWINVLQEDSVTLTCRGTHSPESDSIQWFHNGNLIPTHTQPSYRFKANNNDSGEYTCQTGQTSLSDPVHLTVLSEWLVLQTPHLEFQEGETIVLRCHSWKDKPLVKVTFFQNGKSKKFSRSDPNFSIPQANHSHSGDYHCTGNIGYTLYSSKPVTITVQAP

Assay [2] deals with T2, human FcγRI receptor protein (R&D Systems) (human, UniProt P12314 16-288).
T2 construct: also called CD64

Assay [3] addresses T3, human H131 FcγRIIa receptor protein (6xHis and GST tags) (human, UniProt P12318 34-217, limits assumed).
T3 construct: also called HIIa
T3 sequence (looked up): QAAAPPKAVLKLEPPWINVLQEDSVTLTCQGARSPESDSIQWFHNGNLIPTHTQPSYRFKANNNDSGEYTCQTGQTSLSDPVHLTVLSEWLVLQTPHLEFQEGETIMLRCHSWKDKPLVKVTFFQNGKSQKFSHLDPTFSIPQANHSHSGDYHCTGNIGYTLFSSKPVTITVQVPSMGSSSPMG

Another assay has as its target T4, FcγRIIaR (human, UniProt P12318).
T4 construct: recombinant receptor protein with 6xHis and GST tags; also called R131 FcγRIIa
T4 sequence (receptor, looked up): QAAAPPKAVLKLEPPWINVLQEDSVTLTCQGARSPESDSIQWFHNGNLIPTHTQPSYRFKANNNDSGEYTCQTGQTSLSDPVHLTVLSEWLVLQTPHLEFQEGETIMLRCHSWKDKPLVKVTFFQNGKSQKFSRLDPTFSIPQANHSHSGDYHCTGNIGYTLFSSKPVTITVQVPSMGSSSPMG

In assay [4] the target is T5, human V158 FcγRIIIa receptor protein (6xHis and GST tags) (human, UniProt P08637 17-208, limits assumed).
T5 construct: also called VIIIa
T5 sequence (P08637 17-208 F176V limits assumed): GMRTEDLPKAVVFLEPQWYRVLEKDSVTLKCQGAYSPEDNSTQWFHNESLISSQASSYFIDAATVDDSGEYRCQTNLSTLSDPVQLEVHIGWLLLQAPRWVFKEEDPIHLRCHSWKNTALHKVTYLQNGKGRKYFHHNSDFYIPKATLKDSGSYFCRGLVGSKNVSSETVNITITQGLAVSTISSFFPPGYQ

T2 sequence (P12314 16-288 limits assumed): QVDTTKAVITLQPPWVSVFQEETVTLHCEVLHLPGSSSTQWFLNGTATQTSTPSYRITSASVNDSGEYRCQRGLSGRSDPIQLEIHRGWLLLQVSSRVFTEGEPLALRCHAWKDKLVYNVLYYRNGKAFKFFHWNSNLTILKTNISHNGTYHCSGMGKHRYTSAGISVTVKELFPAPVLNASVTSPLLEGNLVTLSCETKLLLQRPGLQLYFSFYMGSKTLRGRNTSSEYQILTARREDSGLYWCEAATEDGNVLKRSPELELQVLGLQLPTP

B1: L234E/S267E/L328F (antibody, human IgG1, kappa)
heavy: EVQLVESGGGLVKPGGSLKLSCAASGYTFTSYVMHWVRQAPGKGLEWIGYINPYNDGTKYNEKFQGRVTISSDKSISTAYMELSSLRSEDTAMYYCARGTYYYGTRVFDYWGQGTLVTVSSASTKGPSVFPLAPSSKSTSGGTAALGCLVKDYFPEPVTVSWNSGALTSGVHTFPAVLQSSGLYSLSSVVTVPSSSLGTQTYICNVNHKPSNTKVDKKVEPKSCDKTHTCPPCPAPEELGGPSVFLFPPKPKDTLMISRTPEVTCVVVDVEHEDPEVKFNWYVDGVEVHNAKTKPREEQYNSTYRVVSVLTVLHQDWLNGKEYKCKVSNKAFPAPIEKTISKAKGQPREPQVYTLPPSREEMTKNQVSLTCLVKGFYPSDIAVEWESNGQPENNYKTTPPVLDSDGSFFLYSKLTVDKSRWQQGNVFSCSVMHEALHNHYTQKSLSLSPGK
light: DIVMTQSPATLSLSPGERATLSCRSSKSLQNVNGNTYLYWFQQKPGQSPQLLIYRMSNLNSGVPDRFSGSGSGTEFTLTISSLEPEDFAVYYCMQHLEYPITFGAGTKLEIKRTVAAPSVFIFPPSDEQLKSGTASVVCLLNNFYPREAKVQWKVDNALQSGNSQESVTEQDSKDSTYSLSSTLTLSKADYEKHKVYACEVTHQGLSSPVTKSFNRGEC
notes: HuAM4G7 IgG1 Fc variant
Consider B1, for which, in assay [1], the “Fold FcγRIIb” value was 195 fold. The “Fold FcγRI” value in assay [2] is 0.0425 fold. Besides, the “Fold FcγRIIaH” value in assay [3] stood at 0.0725 fold. The “Fold FcγRIIaR” value with FcγRIIaR is 174 fold. Also, the binding result in assay [4] was “no binding”.

B2: L234F (antibody, human IgG1, kappa)
heavy: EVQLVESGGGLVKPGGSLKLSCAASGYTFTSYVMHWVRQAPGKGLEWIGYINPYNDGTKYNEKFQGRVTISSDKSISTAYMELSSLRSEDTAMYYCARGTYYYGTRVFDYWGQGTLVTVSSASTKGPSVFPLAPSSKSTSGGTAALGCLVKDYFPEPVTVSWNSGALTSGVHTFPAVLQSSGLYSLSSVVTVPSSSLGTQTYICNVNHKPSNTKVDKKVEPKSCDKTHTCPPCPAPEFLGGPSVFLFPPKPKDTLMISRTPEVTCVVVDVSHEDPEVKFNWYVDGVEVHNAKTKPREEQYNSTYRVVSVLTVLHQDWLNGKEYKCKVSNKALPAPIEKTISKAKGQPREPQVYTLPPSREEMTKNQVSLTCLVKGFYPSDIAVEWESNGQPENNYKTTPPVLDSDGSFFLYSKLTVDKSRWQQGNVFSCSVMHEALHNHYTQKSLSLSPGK
light: DIVMTQSPATLSLSPGERATLSCRSSKSLQNVNGNTYLYWFQQKPGQSPQLLIYRMSNLNSGVPDRFSGSGSGTEFTLTISSLEPEDFAVYYCMQHLEYPITFGAGTKLEIKRTVAAPSVFIFPPSDEQLKSGTASVVCLLNNFYPREAKVQWKVDNALQSGNSQESVTEQDSKDSTYSLSSTLTLSKADYEKHKVYACEVTHQGLSSPVTKSFNRGEC
notes: HuAM4G7 IgG1 Fc variant
In the case of B2, in assay [1], the “Fold FcγRIIb” value turned out to be 0.409 fold. Also, the “Fold FcγRI” value in assay [2] was found to be 0.0362 fold. Moreover, the binding result in assay [3] and in assay [4] was “no binding” each time. Besides, the “Fold FcγRIIaR” value with FcγRIIaR worked out at 0.228 fold.

B3: L234F/S267E (antibody, human IgG1, kappa)
heavy: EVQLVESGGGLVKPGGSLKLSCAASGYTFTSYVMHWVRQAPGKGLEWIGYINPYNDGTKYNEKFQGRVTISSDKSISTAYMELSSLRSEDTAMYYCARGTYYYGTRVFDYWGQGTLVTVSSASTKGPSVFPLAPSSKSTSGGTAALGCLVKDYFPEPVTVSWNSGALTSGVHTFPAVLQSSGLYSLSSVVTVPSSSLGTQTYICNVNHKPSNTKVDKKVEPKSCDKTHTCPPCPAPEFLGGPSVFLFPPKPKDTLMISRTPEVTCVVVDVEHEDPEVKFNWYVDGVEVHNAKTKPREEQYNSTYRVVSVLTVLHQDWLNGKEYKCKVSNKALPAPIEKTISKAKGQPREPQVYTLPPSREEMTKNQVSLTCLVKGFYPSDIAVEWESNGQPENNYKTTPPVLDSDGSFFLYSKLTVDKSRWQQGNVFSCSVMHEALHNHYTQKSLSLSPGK
light: DIVMTQSPATLSLSPGERATLSCRSSKSLQNVNGNTYLYWFQQKPGQSPQLLIYRMSNLNSGVPDRFSGSGSGTEFTLTISSLEPEDFAVYYCMQHLEYPITFGAGTKLEIKRTVAAPSVFIFPPSDEQLKSGTASVVCLLNNFYPREAKVQWKVDNALQSGNSQESVTEQDSKDSTYSLSSTLTLSKADYEKHKVYACEVTHQGLSSPVTKSFNRGEC
notes: HuAM4G7 IgG1 Fc variant
Turning to B3, the “Fold FcγRIIb” value in assay [1] is 26.4 fold. Also, the “Fold FcγRI” value in assay [2] was determined as 0.661 fold. In addition, the “Fold FcγRIIaH” value in assay [3] came to 0.509 fold. Moreover, the “Fold FcγRIIaR” value with FcγRIIaR amounted to 20.7 fold. The “Fold FcγRIIIaV” value in assay [4] amounted to 0.0938 fold.

B4: L235A (antibody, human IgG1, kappa)
heavy: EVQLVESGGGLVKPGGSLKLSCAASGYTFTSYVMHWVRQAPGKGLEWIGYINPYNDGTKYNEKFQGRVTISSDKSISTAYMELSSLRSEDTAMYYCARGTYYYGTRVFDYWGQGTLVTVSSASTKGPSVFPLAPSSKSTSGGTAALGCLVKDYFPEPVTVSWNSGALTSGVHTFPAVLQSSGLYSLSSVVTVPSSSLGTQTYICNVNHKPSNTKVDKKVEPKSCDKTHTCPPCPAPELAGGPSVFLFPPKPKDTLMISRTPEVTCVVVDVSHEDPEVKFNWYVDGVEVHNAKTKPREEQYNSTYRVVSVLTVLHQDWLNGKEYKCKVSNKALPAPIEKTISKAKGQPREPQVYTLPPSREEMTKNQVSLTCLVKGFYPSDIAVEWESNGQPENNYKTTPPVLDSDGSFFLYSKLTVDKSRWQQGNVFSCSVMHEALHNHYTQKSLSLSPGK
light: DIVMTQSPATLSLSPGERATLSCRSSKSLQNVNGNTYLYWFQQKPGQSPQLLIYRMSNLNSGVPDRFSGSGSGTEFTLTISSLEPEDFAVYYCMQHLEYPITFGAGTKLEIKRTVAAPSVFIFPPSDEQLKSGTASVVCLLNNFYPREAKVQWKVDNALQSGNSQESVTEQDSKDSTYSLSSTLTLSKADYEKHKVYACEVTHQGLSSPVTKSFNRGEC
notes: HuAM4G7 IgG1 Fc variant
In the case of B4, the “Fold FcγRIIb” value in assay [1] was 0.351 fold. Besides, the “Fold FcγRI” value in assay [2] was 0.0179 fold. Besides, the “Fold FcγRIIaH” value in assay [3] was 0.0486 fold. The “Fold FcγRIIaR” value in the assay with FcγRIIaR was found to be 0.166 fold. The “Fold FcγRIIIaV” value in assay [4] was found to be 0.314 fold.

B5: L235D/S267E/L328F (antibody, human IgG1, kappa)
heavy: EVQLVESGGGLVKPGGSLKLSCAASGYTFTSYVMHWVRQAPGKGLEWIGYINPYNDGTKYNEKFQGRVTISSDKSISTAYMELSSLRSEDTAMYYCARGTYYYGTRVFDYWGQGTLVTVSSASTKGPSVFPLAPSSKSTSGGTAALGCLVKDYFPEPVTVSWNSGALTSGVHTFPAVLQSSGLYSLSSVVTVPSSSLGTQTYICNVNHKPSNTKVDKKVEPKSCDKTHTCPPCPAPELDGGPSVFLFPPKPKDTLMISRTPEVTCVVVDVEHEDPEVKFNWYVDGVEVHNAKTKPREEQYNSTYRVVSVLTVLHQDWLNGKEYKCKVSNKAFPAPIEKTISKAKGQPREPQVYTLPPSREEMTKNQVSLTCLVKGFYPSDIAVEWESNGQPENNYKTTPPVLDSDGSFFLYSKLTVDKSRWQQGNVFSCSVMHEALHNHYTQKSLSLSPGK
light: DIVMTQSPATLSLSPGERATLSCRSSKSLQNVNGNTYLYWFQQKPGQSPQLLIYRMSNLNSGVPDRFSGSGSGTEFTLTISSLEPEDFAVYYCMQHLEYPITFGAGTKLEIKRTVAAPSVFIFPPSDEQLKSGTASVVCLLNNFYPREAKVQWKVDNALQSGNSQESVTEQDSKDSTYSLSSTLTLSKADYEKHKVYACEVTHQGLSSPVTKSFNRGEC
notes: HuAM4G7 IgG1 Fc variant
Turning to B5, the “Fold FcγRIIb” value in assay [1] was found to be 80.4 fold. Further, the “Fold FcγRI” value in assay [2] is 0.00057 fold. Besides, in assay [3], the “Fold FcγRIIaH” value is 0.275 fold. Besides, the “Fold FcγRIIaR” value with FcγRIIaR was determined as 133 fold. In addition, in assay [4], the binding result is “no binding”.

B6: L235I (antibody, human IgG1, kappa)
heavy: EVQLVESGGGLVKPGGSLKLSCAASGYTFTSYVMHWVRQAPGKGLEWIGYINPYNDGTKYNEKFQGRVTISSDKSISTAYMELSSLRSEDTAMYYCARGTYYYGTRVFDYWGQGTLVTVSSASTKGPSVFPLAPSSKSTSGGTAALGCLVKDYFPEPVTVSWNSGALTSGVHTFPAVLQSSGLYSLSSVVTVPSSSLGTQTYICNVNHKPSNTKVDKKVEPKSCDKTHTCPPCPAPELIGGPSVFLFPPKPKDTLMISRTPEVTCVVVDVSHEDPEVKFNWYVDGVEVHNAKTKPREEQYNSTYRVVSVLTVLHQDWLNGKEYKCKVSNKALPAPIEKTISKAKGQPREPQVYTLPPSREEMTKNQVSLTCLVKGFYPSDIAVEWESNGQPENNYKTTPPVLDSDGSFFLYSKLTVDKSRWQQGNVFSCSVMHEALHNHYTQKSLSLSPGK
light: DIVMTQSPATLSLSPGERATLSCRSSKSLQNVNGNTYLYWFQQKPGQSPQLLIYRMSNLNSGVPDRFSGSGSGTEFTLTISSLEPEDFAVYYCMQHLEYPITFGAGTKLEIKRTVAAPSVFIFPPSDEQLKSGTASVVCLLNNFYPREAKVQWKVDNALQSGNSQESVTEQDSKDSTYSLSSTLTLSKADYEKHKVYACEVTHQGLSSPVTKSFNRGEC
notes: HuAM4G7 IgG1 Fc variant
B6: the “Fold FcγRIIb” value in assay [1] was 0.908 fold. Further, the “Fold FcγRI” value in assay [2] amounted to 0.0197 fold. The “Fold FcγRIIaH” value in assay [3] worked out at 0.181 fold. In addition, in the assay with FcγRIIaR, the “Fold FcγRIIaR” value worked out at 0.666 fold. Moreover, in assay [4], the “Fold FcγRIIIaV” value amounted to 0.903 fold.

B7: L235D/S267E (antibody, human IgG1, kappa)
heavy: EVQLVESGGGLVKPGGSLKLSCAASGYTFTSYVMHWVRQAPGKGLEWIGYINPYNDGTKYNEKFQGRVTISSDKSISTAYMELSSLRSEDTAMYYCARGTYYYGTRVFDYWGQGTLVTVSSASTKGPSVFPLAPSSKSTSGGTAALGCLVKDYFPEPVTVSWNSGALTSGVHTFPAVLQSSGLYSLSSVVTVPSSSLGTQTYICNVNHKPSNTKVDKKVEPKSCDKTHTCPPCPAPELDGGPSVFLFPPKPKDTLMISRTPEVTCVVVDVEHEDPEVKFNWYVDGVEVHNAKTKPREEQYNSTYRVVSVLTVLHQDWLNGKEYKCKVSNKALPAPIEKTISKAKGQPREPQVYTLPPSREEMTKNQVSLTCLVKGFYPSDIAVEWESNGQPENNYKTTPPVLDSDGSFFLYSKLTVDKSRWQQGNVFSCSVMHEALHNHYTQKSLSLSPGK
light: DIVMTQSPATLSLSPGERATLSCRSSKSLQNVNGNTYLYWFQQKPGQSPQLLIYRMSNLNSGVPDRFSGSGSGTEFTLTISSLEPEDFAVYYCMQHLEYPITFGAGTKLEIKRTVAAPSVFIFPPSDEQLKSGTASVVCLLNNFYPREAKVQWKVDNALQSGNSQESVTEQDSKDSTYSLSSTLTLSKADYEKHKVYACEVTHQGLSSPVTKSFNRGEC
notes: HuAM4G7 IgG1 Fc variant
As for B7, the “Fold FcγRIIb” value in assay [1] is 16.7 fold. In assay [2], the “Fold FcγRI” value came out at 0.00039 fold. In addition, the binding result in assay [3] and in assay [4] was “no binding” in each case. Further, the “Fold FcγRIIaR” value with FcγRIIaR stood at 13 fold.

B8: L235Y (antibody, human IgG1, kappa)
heavy: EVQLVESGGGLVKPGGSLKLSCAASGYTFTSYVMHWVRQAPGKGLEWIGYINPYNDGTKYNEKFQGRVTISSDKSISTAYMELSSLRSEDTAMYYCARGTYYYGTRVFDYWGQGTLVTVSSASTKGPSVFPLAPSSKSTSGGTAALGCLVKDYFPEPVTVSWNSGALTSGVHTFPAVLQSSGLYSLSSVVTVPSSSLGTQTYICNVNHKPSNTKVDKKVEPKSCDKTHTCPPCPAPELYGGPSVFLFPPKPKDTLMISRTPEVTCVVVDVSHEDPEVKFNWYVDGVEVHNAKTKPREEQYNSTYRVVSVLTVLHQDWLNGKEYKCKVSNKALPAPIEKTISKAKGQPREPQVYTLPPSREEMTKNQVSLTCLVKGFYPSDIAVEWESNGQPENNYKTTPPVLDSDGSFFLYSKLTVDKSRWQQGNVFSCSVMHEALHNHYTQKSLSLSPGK
light: DIVMTQSPATLSLSPGERATLSCRSSKSLQNVNGNTYLYWFQQKPGQSPQLLIYRMSNLNSGVPDRFSGSGSGTEFTLTISSLEPEDFAVYYCMQHLEYPITFGAGTKLEIKRTVAAPSVFIFPPSDEQLKSGTASVVCLLNNFYPREAKVQWKVDNALQSGNSQESVTEQDSKDSTYSLSSTLTLSKADYEKHKVYACEVTHQGLSSPVTKSFNRGEC
notes: HuAM4G7 IgG1 Fc variant
Regarding B8, the “Fold FcγRIIb” value in assay [1] was found to be 1.05 fold. In assay [2], the “Fold FcγRI” value was 0.00232 fold. For the same molecule, the “Fold FcγRIIaH” value in assay [3] is 1.35 fold. Further, in the assay with FcγRIIaR, the “Fold FcγRIIaR” value came to 1.28 fold. Moreover, in assay [4], the “Fold FcγRIIIaV” value was found to be 0.504 fold.

B9: L235F/S267E (antibody, human IgG1, kappa)
heavy: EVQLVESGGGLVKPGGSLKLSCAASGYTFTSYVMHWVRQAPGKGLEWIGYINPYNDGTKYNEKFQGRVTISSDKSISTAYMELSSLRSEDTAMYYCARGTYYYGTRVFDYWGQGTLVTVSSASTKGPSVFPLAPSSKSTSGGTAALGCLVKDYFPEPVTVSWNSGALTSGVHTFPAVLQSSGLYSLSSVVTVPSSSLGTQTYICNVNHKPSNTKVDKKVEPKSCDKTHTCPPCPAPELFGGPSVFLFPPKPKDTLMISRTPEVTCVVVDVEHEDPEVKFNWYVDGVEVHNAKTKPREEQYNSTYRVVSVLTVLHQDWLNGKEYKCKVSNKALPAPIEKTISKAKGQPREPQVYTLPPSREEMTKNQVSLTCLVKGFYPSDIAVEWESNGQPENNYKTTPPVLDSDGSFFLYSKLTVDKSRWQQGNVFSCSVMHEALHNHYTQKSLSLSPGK
light: DIVMTQSPATLSLSPGERATLSCRSSKSLQNVNGNTYLYWFQQKPGQSPQLLIYRMSNLNSGVPDRFSGSGSGTEFTLTISSLEPEDFAVYYCMQHLEYPITFGAGTKLEIKRTVAAPSVFIFPPSDEQLKSGTASVVCLLNNFYPREAKVQWKVDNALQSGNSQESVTEQDSKDSTYSLSSTLTLSKADYEKHKVYACEVTHQGLSSPVTKSFNRGEC
notes: HuAM4G7 IgG1 Fc variant
Turning to B9, the “Fold FcγRIIb” value in assay [1] worked out at 28.4 fold. Besides, the “Fold FcγRI” value in assay [2] turned out to be 0.0176 fold. Besides, the “Fold FcγRIIaH” value in assay [3] turned out to be 0.402 fold. The “Fold FcγRIIaR” value in the assay with FcγRIIaR came to 32.5 fold. The binding result in assay [4] is “no binding”.

B10: L235Y/G236D/S267E (antibody, human IgG1, kappa)
heavy: EVQLVESGGGLVKPGGSLKLSCAASGYTFTSYVMHWVRQAPGKGLEWIGYINPYNDGTKYNEKFQGRVTISSDKSISTAYMELSSLRSEDTAMYYCARGTYYYGTRVFDYWGQGTLVTVSSASTKGPSVFPLAPSSKSTSGGTAALGCLVKDYFPEPVTVSWNSGALTSGVHTFPAVLQSSGLYSLSSVVTVPSSSLGTQTYICNVNHKPSNTKVDKKVEPKSCDKTHTCPPCPAPELYDGPSVFLFPPKPKDTLMISRTPEVTCVVVDVEHEDPEVKFNWYVDGVEVHNAKTKPREEQYNSTYRVVSVLTVLHQDWLNGKEYKCKVSNKALPAPIEKTISKAKGQPREPQVYTLPPSREEMTKNQVSLTCLVKGFYPSDIAVEWESNGQPENNYKTTPPVLDSDGSFFLYSKLTVDKSRWQQGNVFSCSVMHEALHNHYTQKSLSLSPGK
light: DIVMTQSPATLSLSPGERATLSCRSSKSLQNVNGNTYLYWFQQKPGQSPQLLIYRMSNLNSGVPDRFSGSGSGTEFTLTISSLEPEDFAVYYCMQHLEYPITFGAGTKLEIKRTVAAPSVFIFPPSDEQLKSGTASVVCLLNNFYPREAKVQWKVDNALQSGNSQESVTEQDSKDSTYSLSSTLTLSKADYEKHKVYACEVTHQGLSSPVTKSFNRGEC
notes: HuAM4G7 IgG1 Fc variant
On to B10, for which the “Fold FcγRIIb” value in assay [1] was determined as 25 fold. Also, the binding result in assay [2], in assay [3] and in assay [4] was “no binding” each time. Besides, the “Fold FcγRIIaR” value with FcγRIIaR stood at 9.67 fold.
